Patent publication US20160326264A1 (SORRENTO THERAPEUTICS, published 2016)

Key:
[1] = molecular target: T1, endogenous human PSMA (prostate-specific membrane antigen) expressed on LNCaP human prostate cancer cells (human, UniProt Q04609 1-750); experiment: cell-based or functional assay
[2] = molecular target: T1, endogenous human PSMA …; experiment: flow cytometry on LNCaP cells
Method: PSMA expressing LNCaP cells were harvested with enzyme-free Cell Dissociation Buffer (GIBCO) and transferred to V-Bottom 96 well-plates (50,000 cells/well). Cells were incubated on ice for 45 min with serial dilutions of anti-PSMA antibodies PSGB11, PSGB12, PSGC12, PSGD4, PSGD6 and PSA11 in FACS buffer (PBS+ 2% FBS)+NaN₃. […] After 1 wash in FACS buffer, a 1:1000 dilution of Phycoerythrin conjugated anti-Human IgG (γ-chain specific) was added and incubated for 30 min Following a final wash, fluorescence intensity was measured on an Intellicyt High Throughput Flow Cytometer (HTFC).
Data were analyzed using Graphpad Prism software and non-linear regression fit. Data points are shown as the median fluorescence intensity (MFI) of positively labeled cells +/−Standard Error. EC₅₀ values are reported as the concentration of antibody to achieve 50% of maximal PSMA antibodies binding to PSMA expressing cells.

[3] = molecular target: T2, recombinant human PSMA/His (human, UniProt Q04609 44-750); experiment: BLI (Octet), antibody amine-coupled to AR2G sensor, PSMA/His in solution, 1:1 model; FIG. 3, antibody PSA11
T2 construct: not shown: His tag
T2 sequence (Q04609 44-750 limits assumed): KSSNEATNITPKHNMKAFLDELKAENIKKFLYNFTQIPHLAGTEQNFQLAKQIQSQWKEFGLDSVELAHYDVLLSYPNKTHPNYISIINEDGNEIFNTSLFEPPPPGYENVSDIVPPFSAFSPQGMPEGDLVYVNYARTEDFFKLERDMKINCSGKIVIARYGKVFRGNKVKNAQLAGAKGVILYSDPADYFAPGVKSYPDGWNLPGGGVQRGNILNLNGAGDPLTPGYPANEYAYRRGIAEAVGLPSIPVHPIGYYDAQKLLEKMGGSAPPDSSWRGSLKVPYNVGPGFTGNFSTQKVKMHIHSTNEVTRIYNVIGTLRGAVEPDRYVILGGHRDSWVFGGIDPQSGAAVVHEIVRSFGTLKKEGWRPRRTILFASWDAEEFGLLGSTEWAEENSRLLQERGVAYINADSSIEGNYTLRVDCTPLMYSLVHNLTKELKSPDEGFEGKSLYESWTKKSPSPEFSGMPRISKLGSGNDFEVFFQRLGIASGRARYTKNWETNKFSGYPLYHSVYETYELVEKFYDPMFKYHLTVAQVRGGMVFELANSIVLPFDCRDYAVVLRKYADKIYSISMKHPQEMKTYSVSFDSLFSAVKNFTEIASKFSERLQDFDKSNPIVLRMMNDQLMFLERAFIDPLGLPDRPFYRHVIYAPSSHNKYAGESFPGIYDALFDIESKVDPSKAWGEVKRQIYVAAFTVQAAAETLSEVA
Method: (§1) Specifically, an amine Reactive Second-Generation (AR2G) sensor was coated with antibody (15 ug/ml in acetic buffer, pH5.0) using Sulfo-N-hydroxysuccinimide/N-Ethyl-N′-(3-dimethylaminopropyl)carbodiimide hydrochloride (Sulfo-NHS/EDC) coupling methodology. The sensors were quenched with 1M pH 8.5 ethanolamine Data was collected by moving sensors to serially diluted recombinant human PSMA/His (in PBS buffer) wells, then the data was dissociated by transferring the sensors to PBS wells. A 1:1 binding model was used to fit the data.

[4] = molecular target: T2, recombinant human PSMA/His; experiment: Octet biolayer interferometry, antibody amine-coupled to AR2G sensor, recombinant human PSMA/His in solution at 0.75 to 48.1 nM, global 1:1 fit (same value in all 7 rows)
Method: as §1

[5] = molecular target: T2, recombinant human PSMA/His; experiment: Octet biolayer interferometry, antibody amine-coupled to AR2G sensor, recombinant human PSMA/His in solution at 0.75 to 48.1 nM, global 1:1 fit; column headed kdis(1/s) (same value in all 7 rows)
Method: as §1

T1 sequence (Q04609 whole entry): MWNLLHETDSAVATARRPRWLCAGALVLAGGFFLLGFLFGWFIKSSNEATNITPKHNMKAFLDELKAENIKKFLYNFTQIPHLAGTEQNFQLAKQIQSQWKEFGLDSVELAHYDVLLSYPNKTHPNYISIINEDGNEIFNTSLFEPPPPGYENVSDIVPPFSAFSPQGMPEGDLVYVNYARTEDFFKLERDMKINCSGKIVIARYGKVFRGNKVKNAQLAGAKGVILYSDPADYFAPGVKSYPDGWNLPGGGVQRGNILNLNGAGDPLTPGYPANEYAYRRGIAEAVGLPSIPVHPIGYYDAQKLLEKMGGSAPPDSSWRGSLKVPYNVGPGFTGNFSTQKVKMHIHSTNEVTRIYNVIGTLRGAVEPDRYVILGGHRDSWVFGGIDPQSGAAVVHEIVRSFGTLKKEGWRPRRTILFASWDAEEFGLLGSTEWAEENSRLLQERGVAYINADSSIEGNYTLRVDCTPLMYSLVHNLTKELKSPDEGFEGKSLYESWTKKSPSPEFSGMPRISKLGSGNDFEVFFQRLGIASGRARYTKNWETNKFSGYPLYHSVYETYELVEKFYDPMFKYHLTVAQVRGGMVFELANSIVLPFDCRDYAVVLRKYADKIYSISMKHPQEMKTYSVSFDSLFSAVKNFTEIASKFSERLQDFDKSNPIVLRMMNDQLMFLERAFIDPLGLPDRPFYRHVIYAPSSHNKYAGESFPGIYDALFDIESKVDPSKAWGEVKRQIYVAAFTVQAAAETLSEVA

Row | Binder | Cell killing, 2-hours-wash method (IC50, nM); antibody pre-complexed with Protein G-MMAF, LNCaP cells, Cell Titer Glo [1] | Cell killing, No wash method (IC50, nM); antibody pre-complexed with Protein G-MMAF, LNCaP cells, Cell Titer Glo [1] | EC50 [2] | Kd [3] | Kd [4] | kon [4] | koff [5]
1 | anti-PSMA antibody PSGD6 (antibody, V domains shown, Fully human IgG) VH: QVQLVQSGGGLVQPGGSLRLSCAASGFTFSSYWMSWVRQAPGKGLEWVANIKQDGSEKYYVDSVKGRFTISRDNAKNSLYLQMNSLRAEDTAVYYCARVWDYYYDSSGDAFDIWGQGTMVTVSS VL: DIVMTQSPSSVSASVGDRVTITCRASQAISSWLAWYQQKPGKAPKLLIYAASSLQSGVPSRFSGSGSGTDFTLTISSLQPEDFATYYCQQAYSFPVTFGPGTKVDIK | 1.13 nM | 0.04 nM | 1.92 nM | – | – | – | –
2 | anti-PSMA antibody PSA11 (antibody, V domains shown, Fully human IgG (detected with anti-human IgG, gamma-chain specific)) VH: QVQLVQSGGGLVQPGGSLRLSCAASGFTFSSYWMSWVRQAPGKGLEWVANIKQDGSEKYYVDSVKGRFTISRDNAKNSLYLQMNSLRAEDTAVYYCARVWDYYYDSSGDAFDIWGQGTMVTVSS VL: VIWMTQSPSSVSASVGDRVTITCRASQGISSWLAWYQQKPGKAPKLLIYAASNLQSGVPSRFSGSGSGTDFTLTISSLQPEDFATYYCQQANSFPLTFGGGTKVDIK | 1.55 nM | 0.08 nM | 2.4 nM | ~0.67 nM | 0.681 nM | 88100 M⁻¹ s⁻¹ | 6e-05 s⁻¹
3 | anti-PSMA antibody PSGB12 (antibody, V domains shown, Fully human IgG) VH: QVQLVQSGGGLVQPGGSLRLSCAASGFTFSSYWMSWVRQAPGKGLEWVANIKQDGSEKYYVDSVKGRFTISRDNAKNSLYLQMNSLRAEDTAVYYCARVWDYYYDSSGDAFDIWGQGTMVTVSS VL: DVVMTQSPSTLSASVGDRVTITCRASQSISSWLAWYQQKPGKAPKLLIFAASSLQSGVPSRFSGSGSGTDFALTISSLQPEDFATYYCQESYSIPWTFGQGTKVEIK | 1.66 nM | 0.05 nM | 3.46 nM | – | – | – | –
4 | anti-PSMA antibody PSGD4 (antibody, V domains shown, Fully human IgG) VH: QVQLVQSGGGLVQPGGSLRLSCAASGFTFSSYWMSWVRQAPGKGLEWVANIKQDGSEKYYVDSVKGRFTISRDNAKNSLYLQMNSLRAEDTAVYYCARVWDYYYDSSGDAFDIWGQGTMVTVSS VL: DIVMTQSPSSLSASVGDRVSITCRASQGISTWLAWYQQKPGKAPDLLIYAASNLQSGVPSRFSGSGSGTDFTLTISSLQPEDFATYYCQQANSFPLTFGGGTKVEIK | 2.09 nM | 0.06 nM | 1.59 nM | – | – | – | –
5 | anti-PSMA antibody PSGE10 (antibody, V domains shown, Fully human IgG) VH: QVQLVQSGGGLVQPGGSLRLSCAASGFTFSSYWMSWVRQAPGKGLEWVANIKQDGSEKYYVDSVKGRFTISRDNAKNSLYLQMNSLRAEDTAVYYCARVWDYYYDSSGDAFDIWGQGTMVTVSS VL: DVVMTQSPSSVSASVGDRVTITCRASQGISSWLAWYQQKPGKAPKLLIYAASTLQSGVPSRFSGSGSGTDFTLTINNLQPEDFATYYCQQTASFPINFGGGTKVEIK | 1.58 nM | 0.08 nM | 1.92 nM | – | – | – | –
6 | anti-PSMA antibody PSGF9 (antibody, V domains shown, Fully human IgG) VH: QVQLVQSGGGLVQPGGSLRLSCAASGFTFSSYWMSWVRQAPGKGLEWVANIKQDGSEKYYVDSVKGRFTISRDNAKNSLYLQMNSLRAEDTAVYYCARVWDYYYDSSGDAFDIWGQGTMVTVSS VL: AIQMTQSPSSVSASVGDRVTITCRASQGISSWLAWYQQKPGKAPKLLIYAASSLQSGVPSRFSGSGSGTDFTLTISSLQPEDIATYYCQESYSTPFTFGPGTKVDIK | 1.33 nM | 0.13 nM | 2.08 nM | – | – | – | –
7 | anti-PSMA antibody PSGH3 (antibody, V domains shown, Fully human IgG) VH: QVQLVQSGGGLVQPGGSLRLSCAASGFTFSSYWMSWVRQAPGKGLEWVANIKQDGSEKYYVDSVKGRFTISRDNAKNSLYLQMNSLRAEDTAVYYCARVWDYYYDSSGDAFDIWGQGTMVTVSS VL: DIVMTQSPSSVSASVGDRVTITCRASQGISNWLAWYQQKPGKAPKLLIYVASSLQSGVPSRFSGSGSGTDFTLTISSLQPEDFATYYCQQANSFPITFGQGTRLEIK | 1.51 nM | 0.06 nM | 3.72 nM | – | – | – | –
8 | anti-PSMA antibody PSGH8 (antibody, V domains shown, Fully human IgG) VH: QVQLVQSGGGLVQPGGSLRLSCAASGFTFSSYWMSWVRQAPGKGLEWVANIKQDGSEKYYVDSVKGRFTISRDNAKNSLYLQMNSLRAEDTAVYYCARVWDYYYDSSGDAFDIWGQGTMVTVSS VL: DIVMTQSPSSLSASVGDRVTITCRASQGISSWLAWYQQKPGKAPKLLIYAASSLQSGVPSRFSGSGSGTDFTLTINSLQPEDFATYYCQQASGFPFTFGPGTKVDIK | – | – | 2.13 nM | – | – | – | –
9 | anti-PSMA antibody PSGD3 (antibody, V domains shown, Fully human IgG) VH: QVQLVQSGGGLVQPGGSLRLSCAASGFTFSSYWMSWVRQAPGKGLEWVANIKQDGSEKYYVDSVKGRFTISRDNAKNSLYLQMNSLRAEDTAVYYCARVWDYYYDSSGDAFDIWGQGTMVTVSS VL: DIVMTQSPSSVSASVGDRVTITCRASQDINNWLAWYQQKAGKAPKLLIYVATKLQNGVPSRFSGSGSGTDFTLSISNLQPEDFATYYCQQAKSFPYTFGQGTKLEIK | 2.24 nM | 0.12 nM | 3.15 nM | – | – | – | –
10 | anti-PSMA antibody PSGC9 (antibody, V domains shown, Fully human IgG) VH: QVQLVQSGGGLVQPGGSLRLSCAASGFTFSSYWMSWVRQAPGKGLEWVANIKQDGSEKYYVDSVKGRFTISRDNAKNSLYLQMNSLRAEDTAVYYCARVWDYYYDSSGDAFDIWGQGTMVTVSS VL: AIRMTQSPSTLSASVGDRVTITCRASQNIYGWLAWYQQKPGKAPELLIYAASSLQSGVPSRFSGSGSGTDFTLTINSLQPEDFATYYCQQSYTIPFTFGPGTKVDIK | 1.22 nM | 0.06 nM | 2.05 nM | – | – | – | –
11 | anti-PSMA antibody PSGC8 (antibody, V domains shown, Fully human IgG) VH: QVQLVQSGGGLVQPGGSLRLSCAASGFTFSSYWMSWVRQAPGKGLEWVANIKQDGSEKYYVDSVKGRFTISRDNAKNSLYLQMNSLRAEDTAVYYCARVWDYYYDSSGDAFDIWGQGTMVTVSS VL: AIRMTQSPSSVSASVGDRVTITCRASQGISSWLAWYQQKPGKAPKLLIYAASSLQSGVPSRFSGSGSGTDFTLTISSLKPEDFATYYCQQANSFPRALTFGGGTKVEIK | – | – | 3.84 nM | – | – | – | –
12 | anti-PSMA antibody PSGG6 (antibody, V domains shown, Fully human IgG) VH: QVQLVQSGGGLVQPGGSLRLSCAASGFTFSSYWMSWVRQAPGKGLEWVANIKQDGSEKYYVDSVKGRFTISRDNAKNSLYLQMNSLRAEDTAVYYCARVWDYYYDSSGDAFDIWGQGTMVTVSS VL: EIVLTQSPSSLSASVGDRVTITCRASQGISSYLAWYQQKPGKAPKLLIYAASTLQSGVPSRFSGSGSGTDFTLTISSLQPEDFATYYCQQLNSYPRGITFGQGTKLEIK | – | – | 1.3 nM | – | – | – | –
13 | anti-PSMA antibody PSGC12 (antibody, V domains shown, Fully human IgG) VH: QVQLVQSGGGLVQPGGSLRLSCAASGFTFSSYWMSWVRQAPGKGLEWVANIKQDGSEKYYVDSVKGRFTISRDNAKNSLYLQMNSLRAEDTAVYYCARVWDYYYDSSGDAFDIWGQGTMVTVSS VL: DIVMTQSPSSVSASVGDRVTITCRASQDVGTWLAWYQQKPGRAPKLLIYVASSLQSGVPSRFSGSGSGTDFTLTISSLQPEDSATYYCQQAKGIPYTFGQGTKLEIK | – | – | 2.84 nM | – | – | – | –
